± gives the standard deviation.
Test: protein stability index of a GFP-peptide fusion (GPS, HEK-293T) (PSI 1-6); higher = more stable
[1] = treatment: DMSO, c terminus: a fixed tail appended
[2] = treatment: MLN4924 1 uM, 8 h, c terminus: a fixed tail appended
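Further: 24-mer peptide tiles fused after GFP, lentivirally expressed, FACS-sorted into six equal bins by GFP/DsRed ratio, decoded by Illumina sequencing, PSI is the read-weighted mean bin number.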

Row | Sequence | protein stability index [1] | protein stability index [2] | protein stability index (treatment: DMSO, c terminus: native) | protein stability index (treatment: MLN4924 1 uM, 8 h, c terminus: native)
1 | GRLIQLSRDGATGHVLLTDSEFSM [PPFIA4] | 2.24 ± 0.22 | 2.17 ± 0.46 |  | 
2 | YKNIKRPPGDIMFLLVQRFGELMR [USP39] | 2.29 ± 0.16 | 2.14 ± 0.17 |  | 
3 | DQTGSKSSNLLDLKNPFFRYTGTT [CARM1] | 3.44 ± 0.18 | 3.28 ± 0.13 |  | 
4 | VKSKAKKTVDKHSDEYKIRRERNN [CEBPB] | 4.78 ± 0.39 | 4.79 ± 0.2 |  | 
5 | ELESIRQDRDALHMEGLIVRERIL [FEM1B] | 3.44 ± 0.27 | 3.52 ± 0.36 |  | 
6 | SLGKTNVKDDELDAMLKEASGPIN [MYL5] | 5.14 ± 0.26 | 5.35 ± 0.16 |  | 
7 | SGEKPYKCSDCGKAFLTKTMLIVH [ZNF649] | 3.52 ± 0.24 | 3.68 ± 0.35 |  | 
8 | HGNLSEEAAKQMRSRGKVLKTKDG [CPOX] | 5.22 ± 0.2 | 5.41 ± 0.2 |  | 
9 | NAREESLVEELSPASEKKPVPPSE [BCL2L13] | 5.33 ± 0.27 | 5.47 ± 0.14 |  | 
10 | AVGAAAEAEADEEADPPASDLPTP [SNX8] | 5.5 ± 0.27 | 5.56 ± 0.19 |  | 
11 | ALSYAQHTRQLISCGGDGGIVVWN [WDFY2] | 2.16 ± 0.47 | 2.12 ± 0.23 |  | 
12 | KNVELKFVDSIRRQFEFSVDSFQI [TENT5C] | 2.29 ± 0.6 | 2.42 ± 0.39 |  | 
13 | IFSGAASLGYGTNVAATGISQYED [APBB1IP] | 3.83 ± 0.24 | 3.67 ± 0.16 |  | 
14 | MREYKLVVLGSGGVGKSALTVQFV [RAP1B] | 2.51 ± 0.53 | 2.8 ± 0.75 |  | 
15 | SRSPLKIVKKPKSMQCKVILLDGS [EPB41L3] | 2.52 ± 0.081 | 2.51 ± 0.29 |  | 
16 | RAISTSVCVRAHESVVKSEDFSLP [COX4I1] | 3.9 ± 0.17 | 3.79 ± 0.34 |  | 
17 | LRGKFKRPPLRRVRMSADAMLKAL [TNNI2] | 2.25 ± 0.46 | 2.4 ± 0.14 |  | 
18 | QQAVEQIAKAEETHSSLSQELQAR [CCDC89] | 5.2 ± 0.25 | 5.23 ± 0.28 |  | 
19 | EMHFLENAKKLSMYGVDLHHAKDS [EPB41L3] | 3.03 ± 0.67 | 2.8 ± 0.25 |  | 
20 | ATLAACTSNGWGVTDCKHTEDVGV [LOXL2] | 4.03 ± 0.42 | 4.08 ± 0.21 |  | 
21 | QLKRQKRDYIHSLKLLNVLEEYIT [FAM9B] | 2.28 ± 0.55 | 2.56 ± 0.42 |  | 
22 | EGLELTEQTFSPAKSLSFRKGELV [ADD1] | 4 ± 0.39 | 4.2 ± 0.34 |  | 

Row | Sequence | protein stability index [1] | protein stability index [2] | protein stability index (treatment: DMSO, c terminus: native) | protein stability index (treatment: MLN4924 1 uM, 8 h, c terminus: native)
23 | GLWGTTLTENTAENRELYIKTTLR [PKD2L1] | 3.19 ± 0.15 | 3.2 ± 0.17 |  | 
24 | AEADEPTTHFQSIPDAFWWAVVTM [KCNA4] | 2.04 ± 0.76 | 2.11 ± 0.22 |  | 
25 | SFTQEQVADIDGQYAMTRAQRVRA [CTNNB1] | 4.62 ± 0.19 | 4.62 ± 0.14 |  | 
26 | AEELALEQAKKESEDQKRLKQAKE [CHCHD3] | 5.72 ± 0.22 | 5.41 ± 0.29 |  | 
27 | PVIPAAALAGYTGSGPIQLWQFLL [ETS1] | 2.68 ± 0.26 | 2.68 ± 0.28 |  | 
28 | DFTTAAEDQPINLCDKLPPATALG [NOL4L] | 4.83 ± 0.18 | 4.78 ± 0.1 |  | 
29 | PDPSVWSRRYTEMALPFFSLAEVR [MYORG] | 2.52 ± 0.31 | 2.45 ± 0.13 |  | 
30 | CEIQVRTLASAGGPDNLVLLNPEK [ADD1] | 3.42 ± 0.42 | 3.45 ± 0.26 |  | 
31 | KTEDENKQSFLDGGKGHHLPSENL [TOR1AIP2] | 5.4 ± 0.21 | 5.27 ± 0.22 |  | 
32 | SLQKLSTKLSAQSAQYSQQLQAAR [FCHSD1] | 3.34 ± 0.18 | 3.54 ± 0.22 |  | 
33 | HGAVTVGGTSVGSLGVPGSVGGVP [ZBTB22] | 4.02 ± 0.61 | 4.06 ± 0.37 |  | 
34 | LRARNYEYLIRLFQEWEAHRNLSQ [TCF25] | 2.13 ± 0.38 | 2.18 ± 0.35 |  | 
35 | AQAGGSKKAEQKKKEKIIEDKTFG [ZC3H15] | 5.12 ± 0.17 | 5.23 ± 0.16 |  | 
36 | KSITSAMNELQHDLDVVSDALAKV [TPH1] | 4.4 ± 0.18 | 4.47 ± 0.12 |  | 
37 | DVIGDEICCWSFYGQGRKIAEVCC [KCTD10] | 2.42 ± 0.92 | 2.33 ± 0.54 |  | 
38 | ADLLAGFGGSFMAPSPSPVTPAQN [SNAP91] | 4.16 ± 0.38 | 4.28 ± 0.24 |  | 
39 | LANPVLESTPVGTVVGLFNVRDRD [PCDHGC5] | 4.08 ± 0.35 | 4.06 ± 0.34 |  | 
40 | TKGEEISVYVKLAGEREDLWAGSK [MIA2] | 3.36 ± 0.6 | 3.83 ± 0.19 |  | 
41 | QRLKAVIVIQTYYRQWHAKIFVEN [IQUB] | 2.83 ± 0.5 | 2.79 ± 0.79 |  | 
42 | SSRSSEESSSDSGSSDSEEERATR [BRD3] | 5.06 ± 0.33 | 5.08 ± 0.2 |  | 
43 | ELVLVSAGFDAARGDPLGGCQVSP [HDAC6] | 2.89 ± 0.27 | 3.14 ± 0.35 |  | 
44 | FACLSVLFVTVTAVNLSVSTLPSL [KCNG1] | 3.15 ± 0.28 | 3.46 ± 0.23 |  | 

Row | Sequence | protein stability index [1] | protein stability index [2] | protein stability index (treatment: DMSO, c terminus: native) | protein stability index (treatment: MLN4924 1 uM, 8 h, c terminus: native)
45 | GQQSDTAQLELYQLQVESNSSQLL [SCARA5] | 4.12 ± 0.13 | 4.16 ± 0.15 |  | 
46 | STWLILHHKVYDLTKFLEEHPGGE [CYB5A] | 2.17 ± 0.29 | 2.21 ± 0.32 |  | 
47 | WRMLTYKALNTFIDDLFAFVIKMP [CLPTM1] | 2.95 ± 0.4 | 2.96 ± 0.7 |  | 
48 | YNIKLEGKVPMHKLFLEMLEAKV [ESRRG] |  |  | 2.83 ± 1.5 | 2.43 ± 1
49 | FLCDLYPLLKLACTNTYVTGLSMI [OR4A15] | 2.82 ± 0.23 | 3.25 ± 0.45 |  | 
50 | MENKAMYLHTVSDCDTSSICEDSF [SCARA5] | 4.46 ± 0.17 | 4.49 ± 0.22 |  | 
51 | QSETQGLEGAQAPLAVEEDASSST [MAGEA10] | 5.64 ± 0.26 | 5.52 ± 0.33 |  | 
52 | FHEDGPQGPGGDEDDDEEDTDKLL [PSD2] | 5.55 ± 0.32 | 5.59 ± 0.2 |  | 
53 | RIHSGEKPYGCVECGKAFSRSSIL [ZNF24] | 2.24 ± 0.31 | 2.83 ± 0.23 |  | 
54 | SNSADDETDDPRRYQKYGYIGTHE [OAS1] | 4.99 ± 0.11 | 4.85 ± 0.16 |  | 
55 | GSAPFLFLSLACARGSIVATYIFI [SPNS1] | 3.15 ± 0.53 | 2.9 ± 0.46 |  | 
56 | ETRRRMEMAFNTRCKEENTIILQQ [NLN] | 2.66 ± 0.36 | 2.98 ± 0.23 |  | 
57 | ESASSQSGCLRISIQKLSNESRYM [NECAB1] | 2.76 ± 0.2 | 2.78 ± 0.31 |  | 
58 | ASAAAATAAFTTAKAAALSTKTPA [SPAG8] | 4.48 ± 0.26 | 4.57 ± 0.2 |  | 
59 | GRSSLTACSLPLCACLLGQKMLRH [PXN] | 2.32 ± 0.28 | 2.19 ± 0.16 |  | 
60 | FGGMKSSGIGREGAKDSYDFFTEI [ALDH8A1] | 2.22 ± 0.66 | 2.52 ± 0.27 |  | 
61 | VAIFGPPNTYYEGGYFKARLKFPI [CDC34] | 2.24 ± 0.41 | 2.58 ± 0.3 |  | 
62 | LPGGTTGLQLPSTLPVSGNLLDVY [TFE3] | 3.24 ± 0.31 | 3.23 ± 0.17 |  | 
63 | LLVGAAVFDALESDHEMREEEKLK [KCNK9] | 4.26 ± 0.34 | 4.29 ± 0.24 |  | 
64 | YLLQWLKSDKALMMLFNDGTFQVN [PLK2] | 2.73 ± 0.53 | 2.53 ± 0.51 |  | 
65 | PLHVHEEEGILVAVGQDCYTRIWS [DCAF4] | 2.67 ± 0.3 | 2.74 ± 0.43 |  | 
